# Positions count from the first letter of the chain named. Names may count otherwise.
# T1: PpSB1-LOV (Pseudomonas putida, UniProt Q88E39)
# T1 construct: gene PP_4629; dimer
# T1 sequence (Q88E39 1-142): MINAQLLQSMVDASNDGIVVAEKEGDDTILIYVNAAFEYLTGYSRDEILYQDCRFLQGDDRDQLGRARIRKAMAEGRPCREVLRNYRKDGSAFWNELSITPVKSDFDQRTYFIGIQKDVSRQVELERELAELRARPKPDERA
# B1: BtNR (Bacillus tequilensis) (protein)
# chain: MADIKKQILDAYNFRHATKEFDPNKKVSDSDFEFILETGRLSPSSLGLEPWKFVVVQNPEFREKLREYTWGAQKQLPTASHFVLILARTAKDIKYNADYIKRHLKEVKQMPQDVSEGYISKTEEFQKNDLHLLESDRTLFDWASKQTYIALGNMMTAAAQIGVDSCPIEGFQYDHIHRILEEEGLLENGSFDISVMAAFGYRVRDPRPKTRSAVEDVVKWV
# notes: recombinant, coexpressed with ApbE, purified
# B2: BtNR (Bacillus tequilensis; A11D/A17T/F14S/H16A/N13L/R15G/Y12G) (protein)
# chain: B1 chain with A11D, Y12G, N13L, F14S, R15G, H16A, A17T
# notes: as for B1
# How the values were obtained:
# miniSOG [1] = target: T2, miniSOG (Arabidopsis thaliana, UniProt P93025, I387M/N390S/S394T/S409G/C426G/A437D/T438I/Q440S/K441G/I442A/R443T/F470L); assay: X-ray crystal structure […] Å; MS; format: binding; conditions: miniSOG-F2; covalent; phosphoester to OG1 of Thr57; attached in vivo by ApbE
# T2 construct: gene PHOT2; engineered LOV domain of phototropin 2, 106 residues, several mutations abolishing flavin-cysteine adduct; recombinant, coexpressed with ApbE
# miniSOG [2] = target: T3, miniSOG (Arabidopsis thaliana, UniProt P93025, I387M/N390S/S394T/S409G/C426G/F470L, form not given); assay: SDS-PAGE and MS; format: binding; conditions: covalent; attached in vivo by ApbE
# T3 construct: gene PHOT2; engineered LOV domain of phototropin 2, 106 residues, several mutations abolishing flavin-cysteine adduct; recombinant, coexpressed with ApbE
# PpSB1-LOV = target: T1, PpSB1-LOV; assay: absorbance of purified holoprotein; SDS-PAGE fluorescence; ESI-MS; format: binding; conditions: dissociable, noncovalent FMN
# steady-state kinetics = substrate: NC(=O)N/N=C/c1ccc([N+](=O)[O-])o1; assay: steady-state kinetics; format: biochemical, Bacillus tequilensis
# From the text: steady-state kinetics on BtNR
# [3] = BtNR-F3, covalent FMN 100% (cofactor)
molecule,measurement,setting,value
Cc1cc2nc3c(=O)[nH]c(=O)nc-3n(C[C@H](O)[C@H](O)[C@H](O)COP(=O)(O)O)c2cc1C [FMN],X-ray crystal structure 2.0 Å; MS,miniSOG [1],the introduced phosphoester bond between OG1 of Thr57 and the phosphate of FMN
same,SDS-PAGE and MS,miniSOG [2],SDS-PAGE and MS analyses revealed that both proteins were fully covalently flavinylated
same,absorbance of purified holoprotein; SDS-PAGE fluorescence; ESI-MS,PpSB1-LOV,the wild-type protein did not yield in-gel fluorescence as it contains a dissociable FMN
B1,Km,steady-state kinetics; dissociable FMN,64 ± 11.5 µM
same,kcat,steady-state kinetics; dissociable FMN,32 ± 2.3 s⁻¹
same,kcat/Km,steady-state kinetics; dissociable FMN,500000 M⁻¹ s⁻¹
B2,Km,steady-state kinetics; [3],42 ± 6.6 µM
same,kcat,steady-state kinetics; [3],4.5 ± 0.2 s⁻¹
same,kcat/Km,steady-state kinetics; [3],110000 M⁻¹ s⁻¹
